Test results published in patent US20120045438A1 (Janssen / Centocor, published 2012).
Where a chain is given by its changes, count along the chain named.

B1: Phage # 33 Fab (IL-13-142 library) (Fab, V domains shown)
VH: QVTLKESGPVLVKPTETLTLTCTVSGFSLSTYGMGVGWIRQPPGKALEWLAHIWWDDVKRYNPALKSRLTISKDTSKSQVVLTMTNMDPVDTATYYCARMGSDYDVWFDYWGQGTLVTVSS
VL: DIQMTQSPSTLSASVGDRVTITCRASKSISKYLAWYQQKPGKAPKLLIYSGSTLQSGVPSRFSGSGSGTEFTLTISSLQPDDFATYYCQQHDWGPYTFGGGTKVEIK
notes: Fab on phage pIX
B2: Phage # 48 Fab (IL-13-142 library) (Fab, V domains shown)
VH: B1 VH
VL: B1 VL
notes: Fab on phage pIX
B3: Phage # 62 Fab (IL-13-142 library) (Fab, V domains shown)
VH: B1 VH
VL: DIQMTQSPSTLSASVGDRVTITCRASKSISKYLAWYQQKPGKAPKLLIYSGSTLQSGVPSRFSGSGSGTEFTLTISSLQPDDFATYYCQQQDSPYTFGGGTKVEIK
notes: Fab on phage pIX; del = residue deleted
B4: Phage # 81 Fab (IL-13-142 library) (Fab, V domains shown)
VH: B1 VH
VL: B1 VL with W93V
notes: Fab on phage pIX
B5: Phage # 84 Fab (IL-13-142 library) (Fab, V domains shown)
VH: B1 VH
VL: B1 VL with D92L, W93I, G94E
notes: Fab on phage pIX
B6: Phage # 86 Fab (IL-13-142 library) (Fab, V domains shown)
VH: B1 VH
VL: B1 VL with W93T
notes: Fab on phage pIX
B7: Phage # 94 Fab (IL-13-142 library) (Fab, V domains shown)
VH: B1 VH
VL: B1 VL with W93L
notes: Fab on phage pIX
B8: Phage # 87 Fab (IL-13-142 library) (Fab, V domains shown)
VH: B1 VH
VL: B1 VL with D92S, W93L
notes: Fab on phage pIX
B9: Phage # 82 Fab (IL-13-142 library) (Fab, V domains shown)
VH: B1 VH
VL: B1 VL with W93V, G94S
notes: Fab on phage pIX
B10: Phage # 85 Fab (IL-13-142 library) (Fab, V domains shown)
VH: B1 VH
VL: B1 VL with D92M
notes: Fab on phage pIX
B11: Phage # 68 Fab (IL-13-142 library) (Fab, V domains shown)
VH: B1 VH
VL: B3 VL with Q91H, S93F
notes: as for B3
B12: Phage # 80 Fab (IL-13-142 library) (Fab, V domains shown)
VH: B1 VH
VL: B3 VL with S93Y
notes: as for B3
B13: Phage # 88 Fab (IL-13-142 library) (Fab, V domains shown)
VH: B1 VH
VL: B1 VL with D92F
notes: Fab on phage pIX
B14: Phage # 93 Fab (IL-13-142 library) (Fab, V domains shown)
VH: B1 VH
VL: B1 VL with D92E, W93S
notes: Fab on phage pIX
B15: Phage # 83 Fab (IL-13-142 library) (Fab, V domains shown)
VH: B1 VH
VL: B1 VL with W93M
notes: Fab on phage pIX
B16: mAb with Lc 1A05 (Lc6 variant) and Hc2 (antibody, V domains shown)
VH: B1 VH
VL: EIVLTQSPATLSLSPGERATLSCRASKSISKYLAWYQQKPGQAPRLLIYSGSTLQSGIPARFSGSGSGTDFTLTISSLEPEDFAVYYCQQQDGPYTFGQGTKLEIK
notes: human IgG1; del = residue deleted
B17: mAb with Lc 1E03 (Lc6 variant) and Hc2 (antibody, V domains shown)
VH: B1 VH
VL: EIVLTQSPATLSLSPGERATLSCRASKSISKYLAWYQQKPGQAPRLLIYSGSTLQSGIPARFSGSGSGTDFTLTISSLEPEDFAVYYCQQHLLGPYTFGQGTKLEIK
notes: human IgG1
B18: mAb with Lc 2E04 (Lc6 variant) and Hc2 (antibody, V domains shown)
VH: B1 VH
VL: B17 VL with H91P, L93E, G94A
notes: human IgG1
B19: mAb with Lc 2G01 (Lc6 variant) and Hc2 (antibody, V domains shown)
VH: B1 VH
VL: B17 VL with L92F, L93W
notes: human IgG1
B20: mAb with Lc 2A12 (Lc6 variant) and Hc2 (antibody, V domains shown)
VH: B1 VH
VL: B17 VL with L92D, L93P
notes: human IgG1
B21: mAb with Lc 2H08 (Lc6 variant) and Hc2 (antibody, V domains shown)
VH: B1 VH
VL: B17 VL with L93D, G94S
notes: human IgG1
B22: mAb with Lc 2C05 (Lc6 variant) and Hc2 (antibody, V domains shown)
VH: B1 VH
VL: B17 VL with H91Q, L92D
notes: human IgG1
B23: mAb with Lc 2E01 (Lc6 variant, Table 8) and Hc2 (antibody, V domains shown)
VH: B1 VH
VL: B17 VL with L92N, L93E, G94A
notes: human IgG1
B24: mAb with Lc 2A03 (Lc6 variant) and Hc2 (antibody, V domains shown)
VH: B1 VH
VL: B17 VL with L92E, L93S
notes: human IgG1
B25: mAb with Lc 1F03 (Lc6 variant, Table 8) and Hc2 (antibody, V domains shown)
VH: B1 VH
VL: B17 VL with L92D, L93R, G94D
notes: human IgG1
B26: mAb with Lc 3A04 (Lc6 variant) and Hc2 (antibody, V domains shown)
VH: B1 VH
VL: B17 VL with H91P, L93D, G94S
notes: human IgG1
B27: mAb with Lc 1H02 (Lc6 variant) and Hc2 (antibody, V domains shown)
VH: B1 VH
VL: B17 VL with H91Q, L92D, L93I
notes: human IgG1
B28: mAb with Lc 1C02 (Lc6 variant) and Hc2 (antibody, V domains shown)
VH: B1 VH
VL: B17 VL with L92V, L93W
notes: human IgG1
B29: mAb with Lc 2C01 (Lc6 variant) and Hc2 (antibody, V domains shown)
VH: B1 VH
VL: B17 VL with L92S, L93I
notes: human IgG1
B30: mAb with Lc 2A01 (Lc6 variant) and Hc2 (antibody, V domains shown)
VH: B1 VH
VL: B17 VL with L92S, L93H
notes: human IgG1
B31: mAb with Lc 1B01 (Lc6 variant) and Hc2 (antibody, V domains shown)
VH: B1 VH
VL: B17 VL with L92S, L93W
notes: human IgG1
B32: mAb with Lc 2C09 (Lc6 variant) and Hc2 (antibody, V domains shown)
VH: B1 VH
VL: B17 VL with L92E, L93W
notes: human IgG1
B33: mAb with Lc 1G02 (Lc6 variant, Table 8) and Hc2 (antibody, V domains shown)
VH: B1 VH
VL: B17 VL with L92S, L93W, G94A
notes: human IgG1
B34: mAb with Lc 2H01 (Lc6 variant) and Hc2 (antibody, V domains shown)
VH: B1 VH
VL: B17 VL with L92D, L93W, G94E
notes: human IgG1
B35: mAb with Lc 2E12 (Lc6 variant) and Hc2 (antibody, V domains shown)
VH: B1 VH
VL: B17 VL with L92D, L93W, G94S
notes: human IgG1
B36: mAb with Lc 2H09 (Lc6 variant) and Hc2 (antibody, V domains shown)
VH: B1 VH
VL: B17 VL with H91P, L92I, L93D, G94A
notes: human IgG1
B37: mAb with Lc 2E06 (Lc6 variant) and Hc2 (antibody, V domains shown)
VH: B1 VH
VL: B17 VL with L92S, L93S
notes: human IgG1
B38: mAb with Lc 3A09 (Lc6 variant) and Hc2 (antibody, V domains shown)
VH: B1 VH
VL: B17 VL with L92D
notes: human IgG1
B39: mAb with Lc 3C06 (Lc6 variant) and Hc2 (antibody, V domains shown)
VH: B1 VH
VL: B17 VL with L92S, L93V
notes: human IgG1
B40: mAb with Lc 3B06 (Lc6 variant) and Hc2 (antibody, V domains shown)
VH: B1 VH
VL: B17 VL with L93M
notes: human IgG1
B41: mAb with Lc 3A05 (Lc6 variant) and Hc2 (antibody, V domains shown)
VH: B1 VH
VL: B17 VL with L92D, L93N, G94S
notes: human IgG1
B42: mAb with Lc 2C04 (Lc6 variant) and Hc2 (antibody, V domains shown)
VH: B1 VH
VL: B17 VL with L92N, L93F
notes: human IgG1

Target: T1, human IL-13 R130Q variant (R110Q of the mature chain) (human, UniProt P35225 35-146, Biotinylated on amines (NHS-LC-biotin, 4:1) in ELISA, panning and competition assays. The letters are unchanged.)
T1 construct: R130Q counts from Met 1 of the signal peptide, R110Q on the mature chain; Bought from Peprotech; also called IL-13 R110Q; b-R130Q
Test: single-point (10 nM) phage Fab ELISA on biotinylated IL-13 R130Q

Binder | % of Lc16Hc7
B1 | 124%
B2 | 180%
B3 | 185%
B4 | 231%
B5 | 186%
B6 | 334%
B7 | 272%
B8 | 125%
B9 | 342%
B10 | 259%
B11 | 398%
B12 | 163%
B13 | 193%
B14 | 223%
B15 | 145%

Target: T1, human IL-13 R130Q variant (R110Q of the …)
Test: Ra2 binding inhibition ELISA, mAb in crude HEK293 supernatant, IL-13 binding to IL-13Ra2

Binder | % Ra2 Binding Inhibition
B16 | 82.7%
B17 | 61.5%
B18 | 56.6%
B19 | 81.2%
B20 | 78.5%
B21 | 62.3%
B22 | 83.8%
B23 | 53.9%
B24 | 75.8%
B25 | 57.6%
B26 | 67%
B27 | 81.7%
B28 | 68.4%
B29 | 67.7%
B30 | 72.1%
B31 | 77.6%
B32 | 87.6%
B33 | 55.2%
B34 | 80%
B35 | 83%
B36 | 62.5%
B37 | 50.2%
B38 | 76.5%
B39 | 62.1%
B40 | 74.3%
B41 | 55.5%
B42 | 61.9%
